Results published in patent publication US20230002480A1.

Legend:
[1] = target: HIV-1 93TH057 gp120 coree (HIV-1); assay: PDB 5te6 structure, PISA interface
[2] = target: HIV-1 Env of pseudovirus 3016.v5.c45 (clade D) (HIV-1); assay: cell-based or functional assay
[3] = target: MuLV Env pseudovirus (negative control) (MuLV); assay: cell-based or functional assay
[4] = target: HIV-1 Env of pseudovirus BJOX028000.10.3 (clade CRF01_AE, T/F) (HIV-1); assay: cell-based or functional assay
[5] = target: HIV-1 Env of pseudovirus 191955_A11 (clade A, T/F) (HIV-1); assay: cell-based or functional assay
[6] = target: HIV-1 Env of pseudovirus Du422.1 (clade C) (HIV-1); assay: cell-based or functional assay
[7] = target: HIV-1 Env of pseudovirus Q259.d2.17 (clade A) (HIV-1); assay: cell-based or functional assay
[8] = target: HIV-1 Env of pseudovirus Du172.17 (clade C) (HIV-1); assay: cell-based or functional assay
[9] = target: HIV-1 Env of pseudovirus 3103.v3.c10 (clade ACD) (HIV-1); assay: cell-based or functional assay
[10] = target: HIV-1 Env of pseudovirus PVO.4 (clade B) (HIV-1); assay: cell-based or functional assay
[11] = target: HIV-1 Env of pseudovirus 6952.v1.c20 (clade CD) (HIV-1); assay: cell-based or functional assay
[12] = target: HIV-1 Env of pseudovirus AC10.0.29 (clade B) (HIV-1); assay: cell-based or functional assay
[13] = target: HIV-1 Env of pseudovirus Ce1172_H1 (clade C, T/F) (HIV-1); assay: cell-based or functional assay
[14] = target: HIV-1 Env of pseudovirus 620345.c01 (clade CRF01_AE) (HIV-1); assay: cell-based or functional assay
[15] = target: HIV-1 Env of pseudovirus CNE20 (clade BC) (HIV-1); assay: cell-based or functional assay
[16] = target: HIV-1 Env of pseudovirus X2088_c9 (clade G) (HIV-1); assay: cell-based or functional assay
[17] = target: HIV-1 Env of pseudovirus 6545.v4.c1 (HIV-1); assay: cell-based or functional assay
[18] = target: HIV-1 Env of pseudovirus T250-4 (clade CRF02_AG) (HIV-1); assay: cell-based or functional assay
[19] = target: HIV-1 Env of pseudovirus CAP210.2.00.E8 (clade C) (HIV-1); assay: cell-based or functional assay
[20] = target: HIV-1 Env of pseudovirus X1254_c3 (clade G) (HIV-1); assay: cell-based or functional assay
[21] = target: HIV-1 Env of pseudovirus 62357_14_D3_4589 (clade B, T/F) (HIV-1); assay: cell-based or functional assay
[22] = target: HIV-1 Env of pseudovirus Ce1086_B2 (clade C, T/F) (HIV-1); assay: cell-based or functional assay
[23] = target: HIV-1 Env of pseudovirus R1166.c01 (clade CRF01_AE) (HIV-1); assay: cell-based or functional assay
[24] = target: monomeric HIV-1 Ba-L gp120 (HIV-1 Ba-L); assay: retention on gp120 affinity column
[25] = target: HIV-1 93TH057 gp120 coree (HIV-1); assay: PDB 3ngb structure, PISA interface

N6 Fab
Ratio of OD/ID buried surface area [1]: 7.58
buried surface area, CDR H1 [1]: 38 Å^2
buried surface area, CDR H2 [1]: 621 Å^2
buried surface area, CDR L1 [1]: 43 Å^2
buried surface area, CDR L2 [1]: 0 Å^2
buried surface area, CDR L3 [1]: 172 Å^2
buried surface area, CDRH3 [1]: 123 Å^2
buried surface area, Fab heavy and light chain total [1]: 1180 Å^2
buried surface area, Fab heavy chain total [1]: 928 Å^2
buried surface area, Fab light chain total [1]: 251 Å^2
buried surface area, gp120 CD4 binding loop of OD [1]: 206 Å^2
buried surface area, gp120 Loop D of OD [1]: 332 Å^2
buried surface area, gp120 Loop V5 of OD [1]: 339 Å^2
buried surface area, gp120 inner domain (ID) [1]: 132 Å^2
buried surface area, gp120 outer domain (OD) [1]: 1000 Å^2
buried surface area, gp120 total [1]: 1130 Å^2
buried surface area, heavy chain FWR [1]: 146 Å^2
buried surface area, light chain FWR [1]: 36 Å^2

N49P7-54TY (antibody)
IC50, titer in TZM.bl cells [2]: 0.206 mg/L
IC80, titer in TZM.bl cells [2]: 1.91 mg/L
MPI [2]: 92
IC50, titer in TZM.bl cells [3]: > 25 mg/L
IC80, titer in TZM.bl cells [3]: > 25 mg/L
MPI [3]: 0
IC50, titer in TZM.bl cells [4]: 0.009 mg/L
IC80, titer in TZM.bl cells [4]: 0.044 mg/L
MPI [4]: 100
IC50, titer in TZM.bl cells [5]: 3.04 mg/L
IC80, titer in TZM.bl cells [5]: > 25 mg/L
MPI [5]: 72
IC50, titer in TZM.bl cells [6]: 0.402 mg/L
IC80, titer in TZM.bl cells [6]: 2.02 mg/L
MPI [6]: 96
IC50, titer in TZM.bl cells [7]: 0.132 mg/L
IC80, titer in TZM.bl cells [7]: 1.13 mg/L
MPI [7]: 95
IC50, titer in TZM.bl cells [8]: 0.124 mg/L
IC80, titer in TZM.bl cells [8]: 0.529 mg/L
MPI [8]: 100
IC50, titer in TZM.bl cells [9]: 0.151 mg/L
IC80, titer in TZM.bl cells [9]: 0.55 mg/L
MPI [9]: 100
IC50, titer in TZM.bl cells [10]: 0.079 mg/L
IC80, titer in TZM.bl cells [10]: 0.314 mg/L
MPI [10]: 100
IC50, titer in TZM.bl cells [11]: > 25 mg/L
IC80, titer in TZM.bl cells [11]: > 25 mg/L
MPI [11]: 20
IC50, titer in TZM.bl cells [12]: > 25 mg/L
IC80, titer in TZM.bl cells [12]: > 25 mg/L
MPI [12]: 40
IC50, titer in TZM.bl cells [13]: > 25 mg/L
IC80, titer in TZM.bl cells [13]: > 25 mg/L
MPI [13]: 23
IC50, titer in TZM.bl cells [14]: > 25 mg/L
IC80, titer in TZM.bl cells [14]: > 25 mg/L
MPI [14]: 0
IC50, titer in TZM.bl cells [15]: 0.046 mg/L
IC80, titer in TZM.bl cells [15]: 0.16 mg/L
MPI [15]: 100
IC50, titer in TZM.bl cells [16]: 0.172 mg/L
IC80, titer in TZM.bl cells [16]: 0.572 mg/L
MPI [16]: 100
IC50, titer in TZM.bl cells [17]: 3.01 mg/L
IC80, titer in TZM.bl cells [17]: > 25 mg/L
MPI [17]: 74
IC50, titer in TZM.bl cells [18]: 1.02 mg/L
IC80, titer in TZM.bl cells [18]: 19.6 mg/L
MPI [18]: 83
IC50, titer in TZM.bl cells [19]: 0.691 mg/L
IC80, titer in TZM.bl cells [19]: 3.33 mg/L
MPI [19]: 97
IC50, titer in TZM.bl cells [20]: 0.145 mg/L
IC80, titer in TZM.bl cells [20]: 0.599 mg/L
MPI [20]: 100
IC50, titer in TZM.bl cells [21]: 0.055 mg/L
IC80, titer in TZM.bl cells [21]: 0.192 mg/L
MPI [21]: 100
IC50, titer in TZM.bl cells [22]: 0.067 mg/L
IC80, titer in TZM.bl cells [22]: 0.339 mg/L
MPI [22]: 100
IC50, titer in TZM.bl cells [23]: 0.131 mg/L
IC80, titer in TZM.bl cells [23]: 0.47 mg/L
MPI [23]: 100

N49P7YTE (antibody)
IC50, titer in TZM.bl cells [2]: 1.15 mg/L
IC80, titer in TZM.bl cells [2]: 9.65 mg/L
MPI [2]: 89
IC50, titer in TZM.bl cells [3]: > 50 mg/L
IC80, titer in TZM.bl cells [3]: > 50 mg/L
MPI [3]: 4
IC50, titer in TZM.bl cells [4]: 0.018 mg/L
IC80, titer in TZM.bl cells [4]: 0.155 mg/L
MPI [4]: 100
IC50, titer in TZM.bl cells [5]: 39 mg/L
IC80, titer in TZM.bl cells [5]: > 50 mg/L
MPI [5]: 56
IC50, titer in TZM.bl cells [6]: 13.2 mg/L
IC80, titer in TZM.bl cells [6]: > 50 mg/L
MPI [6]: 76
IC50, titer in TZM.bl cells [7]: 5.34 mg/L
IC80, titer in TZM.bl cells [7]: 44.1 mg/L
MPI [7]: 82
IC50, titer in TZM.bl cells [8]: 0.283 mg/L
IC80, titer in TZM.bl cells [8]: 0.953 mg/L
MPI [8]: 100
IC50, titer in TZM.bl cells [9]: 0.322 mg/L
IC80, titer in TZM.bl cells [9]: 0.583 mg/L
MPI [9]: 100
IC50, titer in TZM.bl cells [10]: 0.088 mg/L
IC80, titer in TZM.bl cells [10]: 0.394 mg/L
MPI [10]: 100
IC50, titer in TZM.bl cells [11]: > 50 mg/L
IC80, titer in TZM.bl cells [11]: > 50 mg/L
MPI [11]: 13
IC50, titer in TZM.bl cells [12]: > 50 mg/L
IC80, titer in TZM.bl cells [12]: > 50 mg/L
MPI [12]: 28
IC50, titer in TZM.bl cells [13]: > 50 mg/L
IC80, titer in TZM.bl cells [13]: > 50 mg/L
MPI [13]: 12
IC50, titer in TZM.bl cells [14]: > 50 mg/L
IC80, titer in TZM.bl cells [14]: > 50 mg/L
MPI [14]: 0
IC50, titer in TZM.bl cells [15]: 0.11 mg/L
IC80, titer in TZM.bl cells [15]: 0.317 mg/L
MPI [15]: 99
IC50, titer in TZM.bl cells [16]: 0.329 mg/L
IC80, titer in TZM.bl cells [16]: 1.06 mg/L
MPI [16]: 100
IC50, titer in TZM.bl cells [17]: > 50 mg/L
IC80, titer in TZM.bl cells [17]: > 50 mg/L
MPI [17]: 45
IC50, titer in TZM.bl cells [18]: > 50 mg/L
IC80, titer in TZM.bl cells [18]: > 50 mg/L
MPI [18]: 43
IC50, titer in TZM.bl cells [19]: 3.11 mg/L
IC80, titer in TZM.bl cells [19]: 13.9 mg/L
MPI [19]: 99
IC50, titer in TZM.bl cells [20]: 26.2 mg/L
IC80, titer in TZM.bl cells [20]: > 50 mg/L
MPI [20]: 59
IC50, titer in TZM.bl cells [21]: 0.039 mg/L
IC80, titer in TZM.bl cells [21]: 0.173 mg/L
MPI [21]: 100
IC50, titer in TZM.bl cells [22]: 0.113 mg/L
IC80, titer in TZM.bl cells [22]: 0.53 mg/L
MPI [22]: 99
IC50, titer in TZM.bl cells [23]: 0.232 mg/L
IC80, titer in TZM.bl cells [23]: 0.782 mg/L
MPI [23]: 100

Synagis (antibody)
recovery from gp120 affinity column [24]: < 1%

VRC01 Fab
Ratio of OD/ID buried surface area [25]: 9.68
buried surface area, CDR H1 [25]: 3 Å^2
buried surface area, CDR H2 [25]: 598 Å^2
buried surface area, CDR L1 [25]: 50 Å^2
buried surface area, CDR L2 [25]: 0 Å^2
buried surface area, CDR L3 [25]: 132 Å^2
buried surface area, CDRH3 [25]: 160 Å^2
buried surface area, Fab heavy and light chain total [25]: 1200 Å^2
buried surface area, Fab heavy chain total [25]: 897 Å^2
buried surface area, Fab light chain total [25]: 306 Å^2
buried surface area, gp120 CD4 binding loop of OD [25]: 188 Å^2
buried surface area, gp120 Loop D of OD [25]: 322 Å^2
buried surface area, gp120 Loop V5 of OD [25]: 301 Å^2
buried surface area, gp120 inner domain (ID) [25]: 107 Å^2
buried surface area, gp120 outer domain (OD) [25]: 1040 Å^2
buried surface area, gp120 total [25]: 1140 Å^2
buried surface area, heavy chain FWR [25]: 136 Å^2
buried surface area, light chain FWR [25]: 124 Å^2
